Source: paper PMC6779754, “Brain-specific homeobox Bsx specifies identity of pineal gland between serially homologous photoreceptive organs in zebrafish”

How the values were obtained:
GST-Bsx [1] = target: T1, GST-Bsx (zebrafish, UniProt Q6R3Q6 1-227); assay: competition; competitor vs BSXRE probe (EMSA); EMSA: DIG Gel Shift Kit (Roche) per manufacturer, 2.0 pmol GST-Bsx with 32 fmol DIG-oligonucleotide or 8 fmol DIG-147bp probe; buffer, pH and temperature not stated; conditions: protein: recombinant; tags: N-terminal GST (pGEX-5X-1); annealed synthetic oligonucleotides
T1 sequence (Q6R3Q6 whole entry): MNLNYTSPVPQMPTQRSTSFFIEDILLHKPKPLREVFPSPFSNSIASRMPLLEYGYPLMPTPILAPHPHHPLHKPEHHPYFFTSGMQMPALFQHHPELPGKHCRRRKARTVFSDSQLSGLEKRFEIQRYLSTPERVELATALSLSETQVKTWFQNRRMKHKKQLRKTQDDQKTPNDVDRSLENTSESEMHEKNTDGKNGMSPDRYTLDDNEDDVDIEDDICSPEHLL

GST-Bsx [2] = target: T1, GST-Bsx; assay: EMSA; EMSA: DIG Gel Shift Kit (Roche) per manufacturer, 2.0 pmol GST-Bsx with 32 fmol DIG-oligonucleotide or 8 fmol DIG-147bp probe; buffer, pH and temperature not stated; conditions: protein: recombinant, tags: N-terminal GST (pGEX-5X-1), label: DIG, annealed synthetic oligonucleotides

| Binder | binding result (GST-Bsx [1]) | other results |
| --- | --- | --- |
| D3 competitor (dsDNA) DNA 1: GAATTCGATAGATTTAATATTTCAGTCATCAAGCTT DNA 2: AAGCTTGATGACTGAAATATTAAATCTATCGAATTC | binds | – |
| P3 competitor (dsDNA) DNA 1: GAATTCGATCTCCTGTAATCTGCCTAAATCAAGCTT DNA 2: AAGCTTGATTTAGGCAGATTACAGGAGATCGAATTC | binds | – |
| BSXRE probe (dsDNA) DNA 1: GAATTCGATGGCGCTAATCGGTGGGGGATCAAGCTT DNA 2: AAGCTTCATCCCCCACCGATTAGCGCCATCGAATTC | – | binding result (GST-Bsx [2]; 36-mer): binds |
| BSXRE-mut probe (dsDNA) DNA 1: GAATTCGATGGCGCTACGATGTGGGGGATCAAGCTT DNA 2: AAGCTTCATCCCCCACATCGTAGCGCCATCGAATTC | – | binding result (GST-Bsx [2]): no binding |
| D4 competitor (dsDNA) DNA 1: GAATTCGATTCTGATAATCTGTGTGTGATCAAGCTT DNA 2: AAGCTTGATCACACACAGATTATCAGAATCGAATTC | binds | – |
| D2 competitor (dsDNA) DNA 1: GAATTCGATTGTTTTTAATAAAGATTTATCAAGCTT DNA 2: AAGCTTGATAAATCTTTATTAAAAACAATCGAATTC | binds | – |
